The target of data set [1] is T1, huIL-27 (Homo sapiens, UniProt Q14213+Q8NEV9).
T1 construct: purchased R&D Systems
T1 sequence (Q8NEV9 29-243): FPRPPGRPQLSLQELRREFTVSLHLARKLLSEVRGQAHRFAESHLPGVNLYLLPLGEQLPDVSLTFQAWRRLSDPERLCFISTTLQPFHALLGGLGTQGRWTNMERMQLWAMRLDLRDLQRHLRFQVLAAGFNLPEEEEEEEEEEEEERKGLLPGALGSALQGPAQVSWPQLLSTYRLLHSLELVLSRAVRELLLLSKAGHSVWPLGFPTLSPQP
T1 sequence (Q14213 21-229): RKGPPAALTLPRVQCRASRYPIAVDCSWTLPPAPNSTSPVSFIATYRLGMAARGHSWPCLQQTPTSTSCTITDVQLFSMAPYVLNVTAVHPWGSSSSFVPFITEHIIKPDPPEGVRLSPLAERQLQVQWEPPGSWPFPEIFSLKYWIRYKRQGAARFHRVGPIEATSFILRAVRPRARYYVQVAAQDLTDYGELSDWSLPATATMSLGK
Briefly: Phospho-STAT3 (BIO-PLEX) neutralization of IL-27 by soluble receptors, total human PBMCs. The data set is classed as cell-based. To be noted: ligand huIL-27 at EC90 (2 nM). From the text:
(§1) Whole mouse spleens were harvested from C57 B1/6 mice and washed two times with 1×PBS before being plated out at 2×10^5 cells/well in assay media (RPMI 1640 plus 10% fetal bovine serum) in 96-well, round-bottom tissue culture plates. Total human PBMC (peripheral blood mononuclear cells) were thawed from a frozen vial collected from a leukapherisis donation and washed two times with 1×PBS before being plated out at 10^6 cells/well in assay media in 96-well, round-bottom tissue culture plates. […] Following pre-incubation, treatments were added to the plates containing the cells and incubated together at 37° C. for 15 minutes.
(§2) Following incubation, cells were washed with ice-cold wash buffer (BIO-PLEX Cell Lysis Kit, BIO-RAD Laboratories, Hercules, Calif.) and put on ice to stop the reaction according to manufacturer's instructions. […]
(§3) Capture beads (BIO-PLEX Phospho-Stat3 Assay, BIO-RAD Laboratories) were combined with 50 μL of 1:1 diluted lysates and added to a 96-well filter plate according to manufacture's instructions (BIO-PLEX Phosphoprotein Detection Kit, BIO-RAD Laboratories). […] After the final wash, beads were resuspended in 125 μL/well of bead suspension buffer, shaken for 30 seconds, and read on an array reader (BIO-PLEX, BIO-RAD Laboratories) according to the manufacture's instructions. Data were analyzed using analytical software (BIO-PLEX MANAGER 3.0, BIO-RAD Laboratories). […]

In data set [2] the target is T2, muIL-27 (Mus musculus, UniProt O35228+Q8K3I6).
T2 construct: purchased R&D Systems
T2 sequence (Q8K3I6 29-234): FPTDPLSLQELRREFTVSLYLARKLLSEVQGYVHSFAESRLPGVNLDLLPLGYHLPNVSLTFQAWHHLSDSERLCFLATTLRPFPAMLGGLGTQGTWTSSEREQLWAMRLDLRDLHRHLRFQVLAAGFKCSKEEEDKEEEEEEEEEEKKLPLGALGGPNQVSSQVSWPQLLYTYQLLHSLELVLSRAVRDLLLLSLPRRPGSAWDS
T2 sequence (O35228 19-228): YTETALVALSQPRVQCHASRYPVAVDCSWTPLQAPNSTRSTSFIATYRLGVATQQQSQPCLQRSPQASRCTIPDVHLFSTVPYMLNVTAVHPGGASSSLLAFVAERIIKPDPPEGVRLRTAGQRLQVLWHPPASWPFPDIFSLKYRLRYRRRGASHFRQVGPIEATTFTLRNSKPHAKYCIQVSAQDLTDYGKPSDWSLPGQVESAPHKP
Described as above. The class given is cell-based. The conditions noted are these: ligand muIL-27 at EC90 (2 nM).
Text: as §1, §2, §3

Data set [3] is described as follows: Pharmacokinetics of soluble receptors in female C57B1/6 mice (serum ELISA, noncompartmental analysis). To be noted: 100 μg; for AUCINF: extrapolated to infinity. The data set is classed as in vivo, mouse. The protocol: Studies were performed to evaluate the pharmacokinetics of the mouse (IL-27RAm(mFc1)) and human (IL-27RA-Fc5) soluble receptors in female C57B1/6 mice.
Serum was generated from each sample and analyzed by a qualified enzyme-linked immunosorbant assay (ELISA). The resulting mean serum concentration versus time profiles were then subjected to noncompartmental pharmacokinetic analyses. The following pharmacokinetic parameters were calculated: C0 and Cmax (extrapolated concentration at time zero and maximum serum concentration, respectively), Tmax (time to achieve maximum concentration), t1/2 λz (terminal half-life), AUC0-t (area under the concentration versus time curve from time zero to the last measurable time point), AUCINF (area under the concentration versus time curve extrapolated to infinity), C1 or C1/F (clearance or clearance divided by bioavailable fraction, respectively), VSS or VZ/F (steady state volume of distribution or volume of distribution divided by the bioavailable fraction, respectively), and F (bioavailable fraction).

Broadly, the IC50 is the concentration at which inhibition is half-maximal. Broadly, the Tmax is the time at which the peak concentration occurs. One may read the Cmax as the maximum level reached in the sampled fluid or tissue. One may read the Vss as the apparent volume that relates the amount in the body to the concentration in plasma or blood. Read a high Vss as wide distribution into tissue. Regarding “human IL-27RA-Fc5: Extracellular domain of human IL27RA (amino acids 1 to 512 of SEQ ID NO:3) fused to Fc5, effector minus human gamma1 Fc; SEQ ID NO:16”, the 50% inhibitory concentration (IC50) in data set [1] stood at 0.95 nM. Moreover, the IC50 in data set [2] is 2.97 nM. In data set [3] (IP), the AUC0-120 amounted to 1310 µg·h/mL, the Cl/F was found to be 0.0725 mL/h, the time of peak concentration (Tmax) is listed as 3 h and the “t1/2 λz (terminal half-life)” value amounted to 28.3 h. Moreover, the AUCINF in data set [3] (IP) was 1380 µg·h/mL. The substance further had a Cmax in data set [3] (IP, mouse serum) of 35200 ng/mL. Moreover, in data set [3] (IV), the AUC0-120 turned out to be 1400 µg·h/mL, the Cl amounted to 0.0664 mL/h, the Vss was found to be 2.54 mL and the “t1/2 λz (terminal half-life)” value stood at 34.9 h. The AUCINF in data set [3] (IV) was 1510 µg·h/mL. Besides, the “Co (extrapolated concentration at time zero)” value in data set [3] (IV, mouse serum) is 122 µg/mL. In data set [3] (SC), the AUC0-120 amounted to 1130 µg·h/mL, the Cl/F came out at 0.0828 mL/h, the Tmax was 6 h and the “t1/2 λz (terminal half-life)” value worked out at 29.3 h. Also, the AUCINF in data set [3] (SC) is 1210 µg·h/mL. The Cmax in data set [3] (SC, mouse serum) came out at 21000 ng/mL.

The record behind these values is patent US20100093076A1, “SOLUBLE IL-27 RECEPTOR” (priority 2006, published 2010).
